From patent US20040185460

T1: inactivated MKK4, P45985
T1 chain: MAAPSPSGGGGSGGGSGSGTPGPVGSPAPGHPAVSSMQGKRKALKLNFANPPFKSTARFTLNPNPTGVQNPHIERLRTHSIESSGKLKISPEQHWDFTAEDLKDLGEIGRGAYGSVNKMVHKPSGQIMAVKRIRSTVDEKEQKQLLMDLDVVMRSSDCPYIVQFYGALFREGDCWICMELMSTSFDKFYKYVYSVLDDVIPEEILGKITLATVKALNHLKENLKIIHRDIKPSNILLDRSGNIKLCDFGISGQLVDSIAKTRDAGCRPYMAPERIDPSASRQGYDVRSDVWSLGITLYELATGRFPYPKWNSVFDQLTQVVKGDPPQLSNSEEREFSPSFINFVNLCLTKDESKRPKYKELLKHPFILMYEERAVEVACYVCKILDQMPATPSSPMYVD

B1: baculoviral GST-MLK3KD (protein)
chain: LRLEEVIGIGGFGKVYRGSWRGELVAVKAARQDPDEDISVTAESVRQEARLFAMLAHPNIIALKAVCLEEPNLCLVMEYAAGGPLSRALAGRRVPPHVLVNWAVQIARGMHYLHCEALVPVIHRDLKSNNILLLQPIESDDMEHKTLKITDFGLAREWHKTTQMSAAGTYAWMAPEVIKASTFSKGSDVWSFGVLLWELLTGEVPYRGIDCLAVAYGVAVNKLTLPIPSTCPEPFAQLMADCWAQDPHRRPDFASILQQLEAL
B2: inactivated MKK4 (protein)
chain: T1 chain
B3: baculoviral human GST-MLK7KD (protein)
chain: PANYVAPCRPAASPAPPPSRPSSPVHVAFERLELKELIGAGGFGQVYRATWQGQEVAVKAARQDPEQDAAAAAESVRREARLFAMLRHPNIIELRGVCLQQPHLCLVLEFARGGALNRALAAANAAPDPRAPGPRRARRIPPHVLVNWAVQIARGMLYLHEEAFVPILHRDLKSSNILLLEKIEHDDICNKTLKITDFGLAREWHRTTKMSTAGTYAWMAPEVIKSSLFSKGSDIWSYGVLLWELLTGEVPYRGIDGLAVAYGVAVNKLTLPIPSTCPEPFAKLMKECWQQDPHIRPSFALILEQLTAIEGAVMTEMPQESFHS

Tests used:
[1] = target: GST-MKK4(K113A) [GST: P08515]
[2] = target: GST-MKK7β1(K149A), O14733
[3] = target: myelin basic protein (UBI #13-104)
inactivated MKK4, P45985 = target: T1, inactivated MKK4, P45985

Protein	phosphorylation of substrate coated on the plate (ELISA-based assay, time-resolved fluorescence) [1]	phosphorylation of substrate coated on the plate (ELISA-based assay, time-resolved fluorescence) [2]	phosphorylation of myelin basic protein (radioactive counts, Multiscreen TCA in-plate assay) [3]	phosphorylation of GST-JNK1β1(K55A) by activated MKK4 (phospho-specific JNK antibody, fluorescence) (GST-JNK1β1(K55A), P45983)	phosphorylation of substrate coated on the plate (fluorescence units, ELISA-based assay with phospho-threonine antibody, time-resolved fluorescence) [1]	specific activity, ratio against GST-MLK7KD/LZ (ELISA-based phosphorylation assay) [1]	in vitro kinase cascade: phosphorylation/activation of MKK4, read as phosphorylated GST-JNK1β1(K55A) (phospho-specific JNK antibody, fluorescence) (inactivated MKK4, P45985)	phosphorylation of substrate coated on the plate (fluorescence units, ELISA-based assay with phospho-threonine antibody, time-resolved fluorescence) [2]	specific activity, ratio against GST-MLK7KD/LZ (ELISA-based phosphorylation assay) [2]
B1	both GST-MLK7 forms were less active than GST-MLK3KD (control enzyme)	both GST-MLK7 forms were less active than GST-MLK3KD (control enzyme)	Baculoviral GST-MLK3KD was used as the control enzyme in this analysis to show phosphorylation of myelin basic protein by a member of the mixed lineage kinase family						
B2				MKK4 was activated and was able to phosphorylate its protein substrate GST-JNK1β1(K55A)					
B3			Both GST-MLK7KD and GST-MLK7KD/LZ were able to phosphorylate myelin basic protein		both forms of baculoviral GST-MLK7 catalyzed the phosphorylation of the two MKK protein substrates, GST-MKK4(K113A) and GST-MKK7(K149A)	GST-MLK7KD displaying about 2× higher activity than GST-MLK7KD/LZ	both GST-MLK7KD and GST-MLK7KD/LZ were able to phosphorylate MKK4 and as a consequence of this phosphorylation event, MKK4 was activated	both forms of baculoviral GST-MLK7 catalyzed the phosphorylation of the two MKK protein substrates, GST-MKK4(K113A) and GST-MKK7(K149A)	GST-MLK7KD displaying about 2× higher activity than GST-MLK7KD/LZ
